Assay results taken from patent US20240270803A1 (Daiichi Sankyo, published 2024).
Substitutions are numbered along the chain they refer to.

B1: peptide derivative H322AT (designed binder)
chain: DPQFGLFSKYRTPNCSQHEGMACYALYEPVCGSDMSTYANECTLCMKIREGGHNIKIIRNGPCGG
B2: peptide H321 (designed binder)
chain: B1 chain with Q17D, H18F, E19D, L26F, A39M, T43A
B3: peptide H322 (designed binder)
chain: B1 chain with A39V, T43A
B4: peptide H228 (designed binder)
chain: B1 chain with S16G, Q17H, H18Y, E19N, M21W, Y24Q, L26F, Y27F
B5: peptide H223 (designed binder)
chain: B1 chain with S16T, Q17M, H18D, E19M, Y24W, L26F
B6: peptide M7 (designed binder)
chain: B1 chain with Q17D, E19A, Y24V, L26F
B7: peptide derivative H308AT (designed binder)
chain: B1 chain with Q17D, E19A, Y24V
B8: peptide derivative H321AT (designed binder)
chain: B1 chain with Q17D, H18F, E19D, L26F
B9: peptide H218 (designed binder)
chain: B1 chain with S16L, Q17K, H18S, L26Y
B10: peptide H308 (designed binder)
chain: B1 chain with Q17D, E19A, Y24V, A39E, T43V
B11: peptide derivative H321AT_D1G_S16A (designed binder)
chain: B1 chain with D1G, S16A, Q17D, H18F, E19D, L26F
B12: peptide derivative H308_D1G_S16A (designed binder)
chain: B1 chain with D1G, S16A, Q17D, E19A, Y24V, A39E, T43V
B13: peptide derivative H322AT_D1G_S16A (designed binder)
chain: B1 chain with D1G, S16A

biological target: T1, full-length HTRA1 (HTRA1 (full)) (human, UniProt Q92743 23-480); test: cell-based or functional assay
T1 sequence (Q92743 23-480): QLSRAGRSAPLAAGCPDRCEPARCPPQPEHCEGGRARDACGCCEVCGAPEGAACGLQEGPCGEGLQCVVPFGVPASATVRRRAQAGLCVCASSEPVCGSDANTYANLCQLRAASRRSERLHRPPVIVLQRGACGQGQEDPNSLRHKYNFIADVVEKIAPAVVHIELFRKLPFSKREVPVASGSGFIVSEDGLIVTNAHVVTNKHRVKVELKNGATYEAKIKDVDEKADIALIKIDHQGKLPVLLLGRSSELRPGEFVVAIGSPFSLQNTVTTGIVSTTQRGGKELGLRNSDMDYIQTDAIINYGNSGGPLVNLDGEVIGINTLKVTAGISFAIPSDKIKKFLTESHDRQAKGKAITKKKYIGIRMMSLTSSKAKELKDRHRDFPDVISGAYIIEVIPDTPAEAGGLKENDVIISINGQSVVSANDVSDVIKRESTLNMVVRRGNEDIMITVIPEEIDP

Row | IC50 (nM) for HTRA1 (full); decomposition rate of substrate peptide H2-Opt | Binder
1 | 25 nM | B1
2 | 29 nM | B2
3 | 17 nM | B3
4 | 38 nM | B4
5 | 66 nM | B5
6 | 24 nM | B6
7 | 31 nM | B7
8 | 18 nM | B8
9 | 55 nM | B9
10 | 15 nM | B10

biological target: T2, HTRA1 protease domain HTRA1 (cat) (human, UniProt F1N152 165-380 (bovine entry)); test: cell-based or functional assay
T2 sequence (F1N152 165-380): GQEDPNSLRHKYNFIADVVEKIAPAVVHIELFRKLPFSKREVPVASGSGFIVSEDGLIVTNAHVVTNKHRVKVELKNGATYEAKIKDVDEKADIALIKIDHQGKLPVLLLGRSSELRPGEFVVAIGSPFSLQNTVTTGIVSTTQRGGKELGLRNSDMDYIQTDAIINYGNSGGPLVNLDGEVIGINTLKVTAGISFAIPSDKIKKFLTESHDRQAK

Row | IC50 (nM) for HTRA1 (cat); decomposition rate of substrate peptide H2-Opt | Binder
11 | 45 nM | B1
12 | 48 nM | B2
13 | 50 nM | B3
14 | 71 nM | B4
15 | 41 nM | B5
16 | 43 nM | B6
17 | 49 nM | B7
18 | 46 nM | B8
19 | 72 nM | B9
20 | 37 nM | B10

biological target: T1, full-length HTRA1 (HTRA1 (full)); test: cell-based or functional assay; remark: another data set of the same source

Row | IC50 (nM) for HTRA1 (full); decomposition rate of substrate peptide H2-Opt (n=3) | Binder
21 | 12 nM | B11
22 | 9.1 nM | B12
23 | 12.2 nM | B13

biological target: T2, HTRA1 protease domain HTRA1 (cat); test: cell-based or functional assay; remark: another data set of the same source

Row | IC50 (nM) for HTRA1 (cat); decomposition rate of substrate peptide H2-Opt (n=3) | Binder
24 | 9 nM | B11
25 | 7.9 nM | B12
26 | 12.9 nM | B13
